Laboratory results taken from US20210238260A1 (published 2021).
Residue numbers refer to the chain shown, from its start. Numbers in names are those of the source.

Columns and labels:
Factor X (FX) = Factor X (FX) (UniProt P00742 41-488); test: cell-based or functional assay
[1] = target: T1, plasma purified human antithrombin III (AT-III), in complex with unfractionated heparin (UFH) (human, UniProt P01008 33-464); test: K0.5: AT-III concentration (with excess UFH) for 50% inhibition of FIXa activity on Mesyl-D-CHG-Gly-Arg-AMC, 10 s incubation
T1 construct: also called AT-III/UFH

[2] = target: T2, plasma purified human antithrombin III (AT-III), in complex with unfractionated heparin (human, UniProt P01008 33-464); test: AT-III/UFH inhibition of FIXa; K0.5 = AT-III conc. for 50% inhibition of residual activity on Mesyl-D-CHG-Gly-Arg-AMC
T2 construct: also called AT-III/UFH

[3] = target: T3, plasma purified human AT-III (antithrombin III) (human, UniProt P01008 33-464); test: K0.5: AT-III conc. for 50% inhibition of FIXa amidolytic activity, AT-III/UFH titrated, 10 s incubation
T3 construct: also called AT-III/UFH complex

B1: FIXa-R318Y/R338E/T343R (enzyme)
chain 1: YNSGKLEEFVQGNLERECMEEKCSFEEAREVFENTERTTEFWKQYVDGDQCESNPCLNGGSCKDDINSYECWCPFGFEGKNCELDVTCNIKNGRCEQFCKNSADNKVVCSCTEGYRLAENQKSCEPAVPFPCGRVSVSQTSKLTR
chain 2: VVGGEDAKPGQFPWQVVLNGKVDAFCGGSIVNEKWIVTAAHCVETGVKITVVAGEHNIEETEHTEQKRNVIRIIPHHNYNAAINKYNHDIALLELDEPLVLNSYVTPICIADKEYTNIFLKFGSGYVSGWGRVFHKGYSALVLQYLRVPLVDRATCLESTKFRIYNNMFCAGFHEGGRDSCQGDSGGPHVTEVEGTSFLTGIISWGEECAMKGKYGIYTKVSRYVNWIKEKTKLT
Factor X activation, fold over wild-type or BeneFIX FIX (Factor X (FX)): ~2.5 fold

B2: FIXa-Y155F/K247N/N249S/N260S (enzyme)
chain 1: B1 chain 1
chain 2: B1 chain 2 with K67N, N69S, N80S, Y138R, E158R, R163T
IC50 [1]: 0.152 µM

B3: FIXa-K247N/N249S/N260S/R318Y/R338E/R403E/E410N (enzyme)
chain 1: B1 chain 1
chain 2: B1 chain 2 with K67N, N69S, N80S, R163T, R223E, E230N
notes: also called K82N/N84S/N95S/R150Y/R170E/R233E/E240N (chymotrypsin numbering)
IC50 [1]: 5.56 µM

B4: FIXa A103N/N105S/R318Y/R338E/R403E/E410N (enzyme)
light: B1 chain 1 with A103N, N105S
heavy: B1 chain 2 with R163T, R223E, E230N
IC50 [2]: 9.19 µM

B5: FIXa-D203N/F205T/R318Y/E410N (enzyme)
chain 1: B1 chain 1
chain 2: B1 chain 2 with D23N, F25T, E158R, R163T, E230N
notes: also called D39N/F41T/R150Y/E240N
IC50 [3]: 1.28 µM

B6: FIXa D203N/F205T/R318Y/E410N (enzyme)
light: B1 chain 1
heavy: B1 chain 2 with D23N, F25T, E158R, R163T, E230N
notes: as for B5
IC50 [2]: 1.28 µM

B7: FIXa-A103N/N105S/R318Y/R338E/R403E/E410N (enzyme)
chain 1: B1 chain 1 with A103N, N105S
chain 2: B1 chain 2 with R163T, R223E, E230N
IC50 [3]: 9.19 µM
